Positions count from the first letter of the chain named.
B1: Antibody Ab1 (antibody, human IgG1, kappa, N297A, V domains shown)
VH: QSLEESGGRLVTPGTPLTLTCTVSGFSLSSYAMSWVRQAPGKGLEWIGVITSIGSTVYASWAKGRFTISKTSTTVDLKITSPTTEDTATYFCARGYDDYDEMTYFNIWGQGTLVTVSS
VL: ALVMTQTPSSVSAAVGGTVTINCQASQNIYSNLAWYQQRPGQRPKLLIYGASNLDAGVPSRFRGSGSGTEYTLTISDLECDDVGTYYCQSAFDSDSTENTFGGGTEVVVKR
B2: Antibody Ab5 (antibody, human IgG1, kappa, N297A, V domains shown)
VH: QSVEESGGRLVTPGTPLTLTCTVSGFSLSNYAVGWVRQAPGKGLEWIGIIGRNGNTWYASWARGRFTISKTSTTVDLKITSPTSEDTATYFCARGYGRSVAYYVFNIWGPGTLVTVSS
VL: AYDMTQTPASVEVAVGGTVTIKCQASQSIYSNLAWYQQRPGQPPKLLIYDASTLESGVPSRFKGSGSGTEYTLTISGVECADAASYYCQQGFTVSDIDNAFGGGTEVVVKR
B3: Antibody Ab4 (antibody, human IgG1, kappa, N297A, V domains shown)
VH: EVQLVESGGGLVQPGGSLRLSCAASGFTVSSYVMIWVRQAPGKGLEYIGITWSAGTYYASSAKGRFTISRDNSKNTLYLQMNSLRAEDTAVYYCAGGGGSIYDIWGQGTLVTVSS
VL: DIQMTQSPSTLSASVGDRVTITCQSSQSVYKNNYLSWYQQKPGKAPKLLIYDASNLPSGVPSRFSGSGSGTEFTLTISSLQPDDFATYYCLGDYDDDADNAFGGGTKVEIKR
B4: Antibody Ab16 (antibody, human IgG1, kappa, N297A, V domains shown)
VH: QSVEEFGGRLVTPGTPLTLTCTVSGFSLNNYAMTWVRQAPGKGLEWIGIIGSIGTTYYASWAKGRFFISKTSTTVDLKIISPTTEDTATYFCARDAGVTVDGYGYYFNIWGPGTLVTVSS
VL: ALVMTQTPSSTSEPVGGTVTINCQASQNIGNDLSWYQQKPGQPPELLIYSTSKLATGVPKRFSGSRSGTQFTLTISDLECDDAATYYCLGVYSYISDDGNAFGGGTEVVVKR
B5: Antibody Ab13 (antibody, human IgG1, kappa, N297A, V domains shown)
VH: QSVEASGGRLVTPGTPLTLTCTASGFSLSTYWMSWVRQAPGKGLEWIGDIYFSNEETNYASWAKGRFTISKTSTTVDLNVISPTTEDTATYFCARGSPDVDIGIDMWGPGTLVTVSS
VL: AAVLTQTPSPVSAAVGGTVSISCQSSQNVYKNNYLSWYQQKPGQPPKLLIYKASTLASGVPSRFKGGGSGTDFTLTISDVQCDAAATYYCAGGYTSSSDNAFGGGTEVVVKR
B6: Antibody Ab19 (antibody, human IgG1, kappa, N297A, V domains shown)
VH: B5 VH with T12M, T15G, P16S, S61T, D101E, G103A, P109Q
VL: B5 VL with G67S, T95S
B7: Antibody Ab9 (antibody, human IgG1, kappa, N297A, V domains shown)
VH: QSVEESGGRLVTPGTPLTLTCTVSGIDLSMYSMGWVRQAPGKGLEYIGWISYGGTAYYASWAKGRFTISKTSTTVELKITSPTIEDTATYFCARETPVNYYLDIWGQGTLVTVSS
VL: AYDMTQTPASVSAAVGGTVTIKCQASENIGSYLAWYQQKPGQPPELLIYRASTLASGVPSRFKGSGSGTQFTLTISGVECADAATYYCQQGYNSENLDNAFGGGTEVVVKR
B8: Antibody Ab17 (antibody, human IgG1, kappa, N297A, V domains shown)
VH: QSLEESGGRLVTPGGSLTLTCAASGFSLTGYNLVWVRQAPGKGLEWIGFISYGDTTYYASWAKGRFTISKTSTTVTLTITDLQPSDTGTYFCARETANTYDYGIWGPGTLVTVSS
VL: AIEMTQTPFSVSAAVGGTVTIKCQASQTISNYLAWYQQKPGQPPKLLIYGASNLESGVPSRFKGSGSGTQFTLTISDLECDDAATYYCQQGYTISNVDNNVFGGGTEVVVKR
B9: Antibody Ab11 (antibody, human IgG1, kappa, N297A, V domains shown)
VH: QSLEESGGRLVTPGTPLTLTCTASGFSLSGYDMSWVRQAPGKGLEYIGLISYDGNTYYATWAKGRFTISKTSTTVDLKITSPTTEDTATYFCARSLYAGPNAGIGPFNIWGQGTLVTVSS
VL: AFELTQTPSSVEAAVGGTVTIKCQASQNIVTNLAWYQQKPGQPPKLLIYGASTLASGVSSRFKGSGSGTQFTLTISDLECADAATYFCQSYDGFNSAGFGGGTEVVVKR
B10: Antibody Ab14 (antibody, human IgG1, kappa, N297A, V domains shown)
VH: EVQLVESGGGLVQPGGSLRLSCAASGFTVSTYWMSWVRQAPGKGLEWVGDIYFSNEETNYASSAKGRFTISRDNSKNTLYLQMNSLRAEDTAVYYCARGSPDVDIGIDMWGPGTLVTVSS
VL: DIQMTQSPSSLSASVGDRVTITCQSSQNVYKNNYLSWYQQKPGKVPKLLIYKASTLASGVPSRFSGSGSGTDFTLTISSLQPEDVATYYCAGGYTSSSDNAFGGGTKVEIKR
B11: Antibody Ab20 (antibody, human IgG1, kappa, N297A, V domains shown)
VH: B10 VH with S62T, D104E, G106A, P112Q
VL: B10 VL
B12: Antibody Ab12 (antibody, human IgG1, kappa, N297A, V domains shown)
VH: QVQLVESGGGVVQPGRSLRLSCAASGFSLSGYDMSWVRQAPGKGLEWVGLISYDGNTYYATSAKGRFTISRDNSKNTLYLQMSSLRAEDTAVYYCARSLYAGPNAGIGPFNIWGQGTLVTVSS
VL: AFQMTQSPSSLSASVGDRVTITCQASQNIVTNLAWYQQKPGKVPKLLIYGASTLASGVPSRFSGSGSGTDFTLTISSLQPEDVATYYCQSYDGFNSAGFGGGTKVEIKR
B13: Antibody Ab18 (antibody, human IgG1, kappa, N297A, V domains shown)
VH: EVQLVESGGGLVQPGGSLRLSCAASGFTVSGYNLVWVRQAPGKGLEWVGFISYGDTTYYASSAKGRFTISRDNSKNTLYLQMNSLRAEDTAVYYCARETANTYDYGIWGQGTLVTVSS
VL: DIQMTQSPSTLSASVGDRVTITCQASQTISNYLAWYQQKPGKAPKLLIYGASNLESGVPSRFSGSGSGTEFTLTISSLQPDDFATYYCQQGYTISNVDNNVFGGGTKVEIKR
B14: Antibody Ab8 (antibody, human IgG1, kappa, N297A, V domains shown)
VH: QVQLVESGGGVVQPGRSLRLSCAASGFTFSSYAMIWVRQAPGKGLEYIGYIDTDTSAYYASSVKGRFTISRDNSKNTLYLQMSSLRAEDTAVYYCARSYAAYGGYPATFDPWGQGTLVTVSS
VL: DIQMTQSPSSLSASVGDRVTITCQASEDIYNLLAWYQQKPGKVPKLLIYSASTLASGVPSRFSGSGSGTDYTLTISSLQPEDVATYYCQNNYLVTTYGVAFGGGTKVEIKR
B15: Antibody Ab15 (antibody, human IgG1, kappa, N297A, V domains shown)
VH: QSVEESGGRLVTPGTPLTLTCTVSGIDLSSYAMIWVRQAPGKGLEYIGIIWSGGTYYATWAKGRFTISKTSTTVDLQITSPTTEDAATYFCAAGGGSIYDVWGPGTLVTVSS
VL: AAVLTQTPSPVSAAVGDTVTIKCQSSQSVYKNNYLSWYQQKPGQPPKLLIYDASNLPSGVPSRFSGSGSGTQFTLTISGVQCDDAATYYCLGDYDDDTDNGFGGGTEVVVKR
B16: Antibody Ab7 (antibody, human IgG1, kappa, N297A, V domains shown)
VH: QEQLKESGGRLVTPGTPLTLTCTVSGFSLSSYAMIWVRQAPGKGLEYIGYIDTDTSAYYASWVKGRFTISRTSTTVDLKITSPTTEDTATYFCARSYAAYGGYPATFDPWGPGTLVTVSS
VL: DVVMTQTPASVSQPVGGTVTIKCQASEDIYNLLAWYQQKPGQPPKLLIYSASTLASGVPSRFKGSGSGTEYTLTISGLECADAATYYCQNNYLVTTYGVAFGGGTEVVVKR
B17: Antibody Ab10 (antibody, human IgG1, kappa, N297A, V domains shown)
VH: QVQLVESGGGVVQPGRSLRLSCAASGFTFSMYSMGWVRQAPGKGLEYIGWISYGGTAYYASSAKGRFTISRDNSKNTLYLQMSSLRAEDTAVYYCARETPVNYYLDIWGQGTLVTVSS
VL: AYDMTQSPSSLSASVGDRVTITCQASENIGSYLAWYQQKPGKVPKLLIYRASTLASGVPSRFSGSGSGTDFTLTISSLQPEDVATYYCQQGYNSENLDNAFGGGTKVEIKR

What follows are binders tested against T1, Homo sapiens Beta-Nerve Growth Factor (beta-NGF) (Homo sapiens, UniProt P01138 122-241) (assay: Antigen binding ELISA: biotinylated NGF on neutravidin plates, anti-human Fc-HRP, OD 450 nm).
T1 construct: Biotinylated and held on neutravidin plates in the ELISA; also called huNGF; B-NGF
Description: (§1) To identify and characterize antibodies and Fab fragments that bind to human NGF, antibody- and Fab-containing solutions were tested by ELISA. Briefly, neutravidin coated plates (Thermo Scientific), were blocked with ELISA buffer (0.1 mg/mL BSA, 1×PBS pH 7.4, 0.002% Tween 20 and 0.005% sodium azide) for 1 hr at room temperature. The plates were then coated with a 1 µg/mL biotinylated B-NGF solution in ELISA buffer for 1 hour at room temperature. This was followed by a wash step (3× using PBS plus 0.05% Tween 20) and a second block with ELISA buffer. The recombinant antibodies or Fabs were then added onto the plates and incubated for 1 hour at room temperature and then washed 3× with PBS/Tween solution. For development, an anti-human Fc-HRP or an anti-human Fab-fragment HRP (1:5000 dilution in ELISA buffer) was added onto the wells and incubated for 45 min at RT. After a 3× wash step with PBS/Tween solution, the plate was developed using TMB substrate for 3 minutes, stopped using 0.5M HCl, and read at 450 nm.

T1 sequence (P01138 122-241): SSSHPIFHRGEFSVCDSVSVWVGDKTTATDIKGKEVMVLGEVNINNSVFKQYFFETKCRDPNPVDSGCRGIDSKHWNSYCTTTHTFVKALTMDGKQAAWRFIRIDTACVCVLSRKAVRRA

Row | Binder | EC50 [nM] | EC50 (read off the curve) [nM]
1 | B1 | 0.571 | ~0.6
2 | B2 | 0.253 | ~0.3
3 | B3 | 0.535 | ~0.05

These binders were tested against T1, Homo sapiens Beta-Nerve Growth Factor … (assay: antigen binding ELISA: biotinylated NGF on neutravidin plates, anti-human Fc-HRP, OD at 450 nm).
Description: as §1

Row | Binder | EC50 [nM]
4 | B4 | 0.358
5 | B5 | 0.339
6 | B6 | 0.441
7 | B7 | 0.221
8 | B8 | 0.7
9 | B9 | 0.379
10 | B10 | 0.646
11 | B11 | 0.667
12 | B12 | 0.78
13 | B13 | 0.561
14 | B14 | 0.207
15 | B15 | 0.239
16 | B16 | 0.203
17 | B17 | 0.306

From patent publication US20170051048A1 (ALDERBIO, published 2017)
